Article doi:10.1101/2021.12.20.473529 (bioRxiv, 2021)

B1: HNF-1A DD-DBD (HNF-1A 1-279), wild type (domain or fragment, human, UniProt P20823 1-279, looked up)
chain: MVSKLSQLQTELLAALLESGLSKEALIQALGEPGPYLLAGEGPLDKGESCGGGRGELAELPNGLGETRGSEDETDDDGEDFTPPILKELENLSPEEAAHQKAVVETLLQEDPWRVAKMVKSYLQQHNIPQREVVDTTGLNQSHLSQHLNKGTPMKTQKRAALYTWYVRKQREVAQQFTHAGQGGLIEEPTGDELPTKKGRRNRFKWGPASQQILFQAYERQKNPSKEERETLVEECNRAECIQRGVSPSQAQGLGSNLVTEVRVYNWFANRRKEEAFRH
B2: HNF-1A DD-DBD/R263C (domain or fragment, human, UniProt P20823 1-279, looked up)
chain: MVSKLSQLQTELLAALLESGLSKEALIQALGEPGPYLLAGEGPLDKGESCGGGRGELAELPNGLGETRGSEDETDDDGEDFTPPILKELENLSPEEAAHQKAVVETLLQEDPWRVAKMVKSYLQQHNIPQREVVDTTGLNQSHLSQHLNKGTPMKTQKRAALYTWYVRKQREVAQQFTHAGQGGLIEEPTGDELPTKKGRRNRFKWGPASQQILFQAYERQKNPSKEERETLVEECNRAECIQRGVSPSQAQGLGSNLVTEVCVYNWFANRRKEEAFRH
B3: HNF-1A DD-DBD/N266S (domain or fragment, human, UniProt P20823 1-279, looked up)
chain: MVSKLSQLQTELLAALLESGLSKEALIQALGEPGPYLLAGEGPLDKGESCGGGRGELAELPNGLGETRGSEDETDDDGEDFTPPILKELENLSPEEAAHQKAVVETLLQEDPWRVAKMVKSYLQQHNIPQREVVDTTGLNQSHLSQHLNKGTPMKTQKRAALYTWYVRKQREVAQQFTHAGQGGLIEEPTGDELPTKKGRRNRFKWGPASQQILFQAYERQKNPSKEERETLVEECNRAECIQRGVSPSQAQGLGSNLVTEVRVYSWFANRRKEEAFRH

Molecular target: the molecule itself
Test: SEC-MALS

Stoichiometry N, 2:
B1
B2
B3
